Laboratory results: patent publication US4701455A, “Biopterin analogs” (Burroughs Wellcome Co., priority 1983, dated 1987)

System: C[C@H](O)[C@H](O)[C@H]1CNc2nc(N)[nH]c(=O)c2N1
Test: purified protein, by the assay type
Conditions: other: Km of substrate (tyrosine) with the pterin as cofactor

Chain of Tyrosine hydroxylase (Homo sapiens) (chain, as listed by the source): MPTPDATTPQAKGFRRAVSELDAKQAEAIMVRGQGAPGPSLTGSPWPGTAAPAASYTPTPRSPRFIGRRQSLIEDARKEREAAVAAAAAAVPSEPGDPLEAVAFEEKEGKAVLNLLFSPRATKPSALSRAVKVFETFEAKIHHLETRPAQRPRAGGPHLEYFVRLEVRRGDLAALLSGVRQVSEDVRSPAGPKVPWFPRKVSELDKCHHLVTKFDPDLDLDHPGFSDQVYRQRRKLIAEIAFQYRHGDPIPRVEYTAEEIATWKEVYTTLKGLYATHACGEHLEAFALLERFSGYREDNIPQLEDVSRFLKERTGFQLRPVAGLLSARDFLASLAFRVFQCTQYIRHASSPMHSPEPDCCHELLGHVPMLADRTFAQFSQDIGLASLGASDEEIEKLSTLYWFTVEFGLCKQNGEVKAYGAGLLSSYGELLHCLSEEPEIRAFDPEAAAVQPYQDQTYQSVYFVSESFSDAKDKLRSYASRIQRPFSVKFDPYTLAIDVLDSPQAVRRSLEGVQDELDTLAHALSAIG

Tyrosine hydroxylase (Homo sapiens) gave a Km of 16.0 µM.
